± gives the standard deviation of the averaged measurements.
Each sequence was assayed on Saccharomyces cerevisiae (assay: protein stability index of tFT-peptide fusion (C-terminal peptide) (PSI (0-1 scale)); higher = more stable (slower turnover)). Settings: genetic background: wild type; temperature: 30 C.
Experimental: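 MPS profiling in S. cerevisiae of the tFT-X12 degron library: putative degron peptides plus stable controls, 12 aa, fused to the C-terminus of a sfGFP-mCherry timer. Cells are FACS-sorted into 8 mCherry/sfGFP bins and deep-sequenced. PSI runs from 0 (unstable) to 1 (stable). Backgrounds are wild type, das1Δ and doa10Δ at 30 °C, and wild type, das1Δ, cdc34-1 and cdc53-1 at 37 °C; 2-3 technical replicates each.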
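Further: PSI is a weighted mean of sequencing reads over stability bins, variants kept only with over 10 reads, mCherry proximal and sfGFP distal, peptide attached via GGGS linker.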

In order of rising protein stability index:
1. RLPYSLTFFLLC  0.0628 ± 0.018
2. RLIARFKILRCI  0.0662 ± 0.0038
3. SCFRSLAVYFLC  0.07 ± 0.015
4. RKVWSLCWFVHL  0.0716 ± 0.015
5. RVSIIYLGVLIS  0.073 ± 0.013
6. NLDRYYKKIKLI  0.0742 ± 0.029
7. QERKILGRIKQA  0.0987 ± 0.035
8. RLGRYSIIHCLA  0.102 ± 0.028
9. RFKEKVSIIHKQ  0.106 ± 0.046
10. RVTYWKAVLVRL  0.109 ± 0.025
11. RYLCLTPALYLS  0.113 ± 0.012
12. MACLRLTVYVMG  0.13 ± 0.026
13. NHKTIRIQNKSI  0.143 ± 0.051
14. RITGCWKTYKMQ  0.164 ± 0.026
15. MALAVRVVACGA  0.19 ± 0.024
16. RNCSFRRIQLAM  0.19 ± 0.022
17. NYVFALFYMVVA  0.217 ± 0.025
18. RKRTILVIIVVK  0.217 ± 0.046
19. RRIKIRKQEYIS  0.217 ± 0.023
20. PPSLFLLLKVFF  0.223 ± 0.023
21. RTWLHLVVPVWG  0.228 ± 0.037
22. PCVPRLLPLQLS  0.233 ± 0.0069
23. RNKIWCTVIMRL  0.234 ± 0.046
24. PRHVLWLRRLLF  0.235 ± 0.024
25. SCFRFFFLFLFF  0.238 ± 0.043
26. NYCLYFKLSRLS  0.25 ± 0.017
27. MFWKFVFRGFWF  0.259 ± 0.019
28. PDPIFGEWVYMV  0.26 ± 0.02
29. RHRGHVRLALLN  0.26 ± 0.029
30. PALPTPPVSPSP  0.265 ± 0.022
31. MSVLAFVCCLSG  0.268 ± 0.027
32. RLINCIYVLMLP  0.274 ± 0.033
33. QCSVRLKEIQFS  0.276 ± 0.0056
34. RKNIKISKAGIG  0.287 ± 0.021
35. NSCHFYSRFYLA  0.3 ± 0.019
36. PFLLLVSPISSC  0.302 ± 0.028
37. PPLTRVPLSISA  0.305 ± 0.034
38. MFLHLGLFIMSH  0.306 ± 0.014
39. PFFFIFVLPFVF  0.309 ± 0.041
40. PRLRPQTVAFLS  0.313 ± 0.016
41. PWAHIRTVQTYV  0.314 ± 0.033
42. RQALYFLMICGL  0.318 ± 0.019
43. NKYSMQNVLKSF  0.323 ± 0.025
44. PLRVFFLVAFCL  0.326 ± 0.05
45. MRGPAWVCVLYS  0.339 ± 0.023
46. RLMLSWLALRRC  0.344 ± 0.068
47. PFAFLSLVLLLP  0.35 ± 0.023
48. MQFVALFLVGLL  0.354 ± 0.023
49. RVHFLIVFLCRF  0.361 ± 0.014
50. PVGLMKRFRLFI  0.364 ± 0.031
51. RICCLFILLFCL  0.365 ± 0.028
52. PLSNLCRVLTFI  0.369 ± 0.015
53. RLLRGDRMVICS  0.375 ± 0.022
54. RYCVVDISAFCD  0.388 ± 0.026
55. RVGWVVVLGCVG  0.397 ± 0.015
56. RGYATTALHWVS  0.4 ± 0.022
57. PGFCFFLYYCMM  0.412 ± 0.018
58. PCYRPPLPALLS  0.43 ± 0.03
59. RLHCFSPILCPI  0.436 ± 0.017
60. MMEMMTKSNRIP  0.446 ± 0.074
61. PWFSWLLYSFLF  0.458 ± 0.026
62. RLVCPFYIACVW  0.488 ± 0.022
63. NLSYFFFSVLFF  0.545 ± 0.068
64. RRRRHVDHSTQR  0.554 ± 0.045
65. PLSSHIPVHEAR  0.645 ± 0.025
66. NDVGGYFYVCSE  0.648 ± 0.024
67. NVALHPGVPRKC  0.649 ± 0.019
68. PHGASLCVPPSP  0.651 ± 0.014
69. PRHLTPPPAPSA  0.659 ± 0.022
70. RIEGTLTARTAF  0.66 ± 0.0097
71. QPSSFDMLGLLL  0.663 ± 0.02
72. PPPPLATTSAPL  0.665 ± 0.015
73. PPSPPPLSASVP  0.669 ± 0.015
74. PVPPSLLHRPPF  0.673 ± 0.021
75. PYSLYASSSSPL  0.676 ± 0.017
76. PHGLKPHCPTPS  0.677 ± 0.01
77. RPAVVPPPFAPL  0.695 ± 0.01
78. QITIYPIPLARF  0.867 ± 0.015

Same assay, conditions: genetic background: wild type; temperature: 37 C

In order of falling protein stability index:
1. QITIYPIPLARF  0.8924 ± 0.0076
2. NDVGGYFYVCSE  0.735 ± 0.023
3. PHGLKPHCPTPS  0.73 ± 0.042
4. PVPPSLLHRPPF  0.727 ± 0.027
5. PYSLYASSSSPL  0.716 ± 0.015
6. QPSSFDMLGLLL  0.709 ± 0.0089
7. RIEGTLTARTAF  0.709 ± 0.00092
8. NVALHPGVPRKC  0.702 ± 0.019
9. PPSPPPLSASVP  0.7 ± 0.0078
10. RPAVVPPPFAPL  0.6996 ± 0.003
11. PHGASLCVPPSP  0.69931 ± 2.1e-06
12. PPPPLATTSAPL  0.6919 ± 0.0013
13. PLSSHIPVHEAR  0.6878 ± 0.0027
14. PRHLTPPPAPSA  0.6742 ± 0.0042
15. MMEMMTKSNRIP  0.639 ± 0.016
16. PVGLMKRFRLFI  0.626 ± 0.018
17. NLSYFFFSVLFF  0.612 ± 0.038
18. RGYATTALHWVS  0.596 ± 0.015
19. RLLRGDRMVICS  0.582 ± 0.0066
20. RLHCFSPILCPI  0.579 ± 0.036
21. RLMLSWLALRRC  0.575 ± 0.0095
22. RYCVVDISAFCD  0.573 ± 0.024
23. RRRRHVDHSTQR  0.5704 ± 0.0037
24. PCYRPPLPALLS  0.568 ± 0.033
25. RLVCPFYIACVW  0.567 ± 0.031
26. NKYSMQNVLKSF  0.552 ± 0.049
27. PWFSWLLYSFLF  0.551 ± 0.011
28. RVGWVVVLGCVG  0.55 ± 0.014
29. PRHVLWLRRLLF  0.5371 ± 0.0031
30. MRGPAWVCVLYS  0.5348 ± 0.0048
31. PGFCFFLYYCMM  0.5331 ± 0.00095
32. PLSNLCRVLTFI  0.526 ± 0.0056
33. NSCHFYSRFYLA  0.5196 ± 0.00096
34. PRLRPQTVAFLS  0.5179 ± 0.001
35. RLINCIYVLMLP  0.513 ± 0.024
36. MQFVALFLVGLL  0.509 ± 0.0056
37. PFAFLSLVLLLP  0.482 ± 0.02
38. QCSVRLKEIQFS  0.481 ± 0.045
39. MFWKFVFRGFWF  0.4748 ± 0.0044
40. RVHFLIVFLCRF  0.472 ± 0.021
41. PLRVFFLVAFCL  0.471 ± 0.013
42. PFFFIFVLPFVF  0.465 ± 0.0074
43. PWAHIRTVQTYV  0.461 ± 0.027
44. PPLTRVPLSISA  0.46 ± 0.005
45. RQALYFLMICGL  0.459 ± 0.027
46. RRIKIRKQEYIS  0.459 ± 0.021
47. PFLLLVSPISSC  0.445 ± 0.014
48. PALPTPPVSPSP  0.43648 ± 0.00011
49. MFLHLGLFIMSH  0.435 ± 0.006
50. NYCLYFKLSRLS  0.429 ± 0.011
51. NHKTIRIQNKSI  0.424 ± 0.044
52. RICCLFILLFCL  0.412 ± 0.019
53. RNKIWCTVIMRL  0.396 ± 0.02
54. RKRTILVIIVVK  0.395 ± 0.052
55. PDPIFGEWVYMV  0.384 ± 0.0032
56. RHRGHVRLALLN  0.381 ± 0.017
57. PCVPRLLPLQLS  0.363 ± 0.0044
58. MSVLAFVCCLSG  0.3585 ± 0.0029
59. PPSLFLLLKVFF  0.357 ± 0.0065
60. NYVFALFYMVVA  0.345 ± 0.03
61. RITGCWKTYKMQ  0.342 ± 0.073
62. RKNIKISKAGIG  0.332 ± 0.0074
63. RTWLHLVVPVWG  0.318 ± 0.014
64. SCFRFFFLFLFF  0.312 ± 0.0097
65. RNCSFRRIQLAM  0.298 ± 0.0095
66. MALAVRVVACGA  0.236 ± 0.0084
67. MACLRLTVYVMG  0.202 ± 0.0036
68. QERKILGRIKQA  0.161 ± 0.026
69. RYLCLTPALYLS  0.157 ± 0.016
70. RVTYWKAVLVRL  0.13 ± 0.0084
71. RFKEKVSIIHKQ  0.12487 ± 0.0001
72. RLGRYSIIHCLA  0.0944 ± 0.058
73. NLDRYYKKIKLI  0.0913 ± 0.021
74. RKVWSLCWFVHL  0.0795 ± 0.0077
75. SCFRSLAVYFLC  0.0763 ± 0.0025
76. RLPYSLTFFLLC  0.0714 ± 0.0077
77. RLIARFKILRCI  0.0702 ± 0.0014
78. RVSIIYLGVLIS  0.0592 ± 0.036

Source: the supplement of paper PMC10724198
